For assay [1], the target named is T1, 676 aa long full-length GP probe (EBOV glycoprotein) (Ebola virus (EBOV), UniProt Q05320 33-676).
T1 sequence: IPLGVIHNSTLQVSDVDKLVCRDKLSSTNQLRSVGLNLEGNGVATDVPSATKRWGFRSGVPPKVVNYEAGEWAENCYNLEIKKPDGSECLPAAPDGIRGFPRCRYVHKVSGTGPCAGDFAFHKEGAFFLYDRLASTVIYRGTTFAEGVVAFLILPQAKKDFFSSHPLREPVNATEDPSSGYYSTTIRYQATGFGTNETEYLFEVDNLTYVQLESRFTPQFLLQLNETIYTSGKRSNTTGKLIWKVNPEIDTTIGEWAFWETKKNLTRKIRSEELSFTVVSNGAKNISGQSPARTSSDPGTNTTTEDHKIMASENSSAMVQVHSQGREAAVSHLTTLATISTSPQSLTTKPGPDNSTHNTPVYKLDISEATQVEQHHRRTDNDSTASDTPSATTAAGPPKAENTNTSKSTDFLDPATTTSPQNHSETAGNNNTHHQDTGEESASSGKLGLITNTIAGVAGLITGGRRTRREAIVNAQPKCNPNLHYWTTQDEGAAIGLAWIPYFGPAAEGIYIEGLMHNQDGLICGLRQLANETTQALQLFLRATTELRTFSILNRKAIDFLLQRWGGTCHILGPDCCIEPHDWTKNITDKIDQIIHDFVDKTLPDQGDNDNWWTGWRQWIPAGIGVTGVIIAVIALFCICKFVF
The experiment in a line: BLI kinetics on full-length GP with the mAb114 site blocked. A general note: In BLI a coated tip is dipped into the sample, and binding shifts an interference pattern.

The target in assay [2] is T1, 676 aa long full-length GP probe (EBOV …).
For assay [3] the target is unchanged. The experiment in a line: BLI saturation binding, full probe on sensor.

This is an account of results in patent publication US20250333484A1 (US Dept. of Health and Human Services, published 2025).

B1: FabA09 (Fab of parental mAbA09) (Fab, V domains shown)
VH: QVQLQESGPGLVKPSETLSLTCVVSGGILSSFYWNWIRQPPGKGLEWIGNIYYSGSPNYNASFQSRVAISVDTSKNQISLNLKSVTAADTAMYYCVRASRAYLWGSYRPTALDLWGQGSLVTVSS
VL: SYELTQPPSVSVSPGQTATITCSGDKLGDKYTSWFQQRPGQSPLLVIYQDNKRPSGLPARFSGSNSGNTATLTISGTQAMDEADYLCQVWDSGAVFGGGTKLTVL
As for B1, the “fold on-rate against BiSp107” value in assay [1] was 3.4 fold.

B2: BiSp107 (mAb114×A09) CrossMab bispecific IgG (bispecific antibody)
heavy 1: not shown
light 1: DIQMTQSPSSLSASVGDRITITCRASQAFDNYVAWYQQRPGKVPKLLISAASALHAGVPSRFSGSGSGTHFTLTISSLQPEDVATYYCQNYNSAPLTFGGGTKVEIKSSASTKGPSVFPLAPSSKSTSGGTAALGCLVKDYFPEPVTVSWNSGALTSGVHTFPAVLQSSGLYSLSSVVTVPSSSLGTQTYICNVNHKPSNTKVDKKVEPKSC
heavy 2: not shown
light 2: SYELTQPPSVSVSPGQTATITCSGDKLGDKYTSWFQQRPGQSPLLVIYQDNKRPSGLPARFSGSNSGNTATLTISGTQAMDEADYLCQVWDSGAVFGGGTKLTVLGQPKAAPSVTLFPPSSEELQANKATLVCLISDFYPGAVTVAWKADSSPVKAGVETTTPSKQSNNKYAASSYLSLTPEQWKSHRSYSCQVTHEGSTVEKTVAPTECS
As to B2, in assay [2], the “fold difference in binding kinetics against parental Fab” value is ≤ 3 fold.

B3: mAb114 (parental IgG) (antibody, V domains shown)
VH: EVQLVESGGGLIQPGGSLRLSCAASGFALRMYDMHWVRQTIDKRLEWVSAVGPSGDTYYADSVKGRFAVSRENAKNSLSLQMNSLTAGDTAIYYCVRSDRGVAGLFDSWGQGILVTVSS
VL: DIQMTQSPSSLSASVGDRITITCRASQAFDNYVAWYQQRPGKVPKLLISAASALHAGVPSRFSGSGSGTHFTLTISSLQPEDVATYYCQNYNSAPLTFGGGTKVEIKS
B3: the “fold binding response at saturation against A09” value in assay [3] came out at 2 fold.
